From patent US6936431
One block for each substance: values may come before it.

Molecular target: rat brain farnesyl:protein transferase (rat) (UniProt Q04631)
Test: cell-based or functional assay

Substance: CAIL (COOH-terminal tetrapeptide of γ-Subunit of G protein)
Concentration For 50% Inhibition: 100 µM

Substance: CVIM with glutamic acid at the A2 position (CVEM) (peptide)
fold decline in affinity: > 50 fold

Substance: CVIM with glutamic acid at the X position (CVIE) (peptide)
50% inhibition: > 40 µM

Substance: CVIM with lysine at the X position (CVIK) (peptide)
50% inhibition: > 40 µM
fold decrease in affinity against CVIM, estimated by the concentration required for 50% inhibition: > 30 fold

Now from value to substance:

50% inhibition: 8 µM
Substance: CVIM with glycine at the A2 position (CVGM) (peptide)

50% inhibition: > 40 µM
Substance: CVIM with glycine at the X position (CVIG) (peptide)

fold decline in affinity: > 50 fold
fold decrease in affinity against CVIM, estimated by the concentration required for 50% inhibition: > 30 fold
Substance: CVIM with lysine at the A2 position (CVKM) (peptide)
